Experimental data from a protein production outcome set (Wang et al. 2014).

Experiment: label from the status in PepcDB records
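Further: failed if final PepcDB status was selected cloned or expressed and not failed if soluble or beyond.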

Row | Sequence | protein production
1 | MRTVSHPTPLRRAPVQRRSAERLTRILDACADLLDEVGYDALSTRAVALRADVPIGSVYRFFGNKRQMADALAQRNLERYAERVTERLTEAGDGGWRGALDTVLDEYLAMKRTAPGFSLIDFGNQIPVGDRHAVPNHRVAERLTELLSGYLGRRPDDDLRRVFLVAVETADTLVQLAFRVAPDGDEKIIEEARELLRAYLGRVLD | not failed
2 | MRTLEPPNRMRIGLMGIVVALLVVAVGQSFTSVPMLFAKPSYYGQFTDSGGLHKGDRVRIAGLGVGTVEGLKIDGDHIVVKFSIGTNTIGTESRLAIRTDTILGRKVLEIEPRGAQALPPGGVLPVGQSTTPYQIYDAFFDVTKAASGWDIETVKRSLNVLSETVDQTYPHLSAALDGVAKFSDTIGKRDEQITHLLAQANQVASILGDRSDQVDRLLVNAKTLIAAFNERGRAVDALLGNISAFSAQVQNLINDNPNLNHVLEQLRILTDLLVDRKEDLAETLTILGRFSASFGETFASGPYFKVLLANLVPGQILQPFVDAAFKKRGISPEDFWRSAGLPAYRWPDPNGTRFPNGAPPPPPPVLEGTPEHPGPAVPPGSPCSYTPPADGLPRPWDPLPCANLTQGPFGGPDFPAPLDVATSPPNPDGPPPAPGLPIAGRPGEVPPNVPGTPVPIPQEAPPGARTLPLGPAPGPAPPPAAPGPPAPPGPGPQLPAPFINPGGTGGSGVTGGSEN | failed
3 | MTDDLLKPNRPHPLFKLATELGPLLVFFIVNAKFHLFAATGAFMVAVVAAVIASYVVTRHVPVMALVTAVVVLVFGTLTLVLHDETFIKMKPTIVYSLFGAVLAGGLLFGRSFIAIMFDQVFNLTAAGWRKLTLRWALFFFAMALLNEAVWRTQSTDFWVNFKVFGVVPLTMLFALLQMPLTKRYAAEPATLEQSAADEGDVSGR | not failed
4 | MNLNAKKTTTAVQSASENPKLRVMPKQLFSRTPVLAGGNAAAKREEIREYFHSTLDRYEQLFETLRGDAAYFKKPISLRHPLIFYLGHTATFFTNKLLLAGLITDRINPKMESMFAVGVDEMSWDDLDTTHYDWPSVEEVRAYRRRMRETVDRLIRETPLTLPIEWDSPWWTIMMGIEHERIHLETSSVLIRQHALEHVAPHPAWEPCRKSGPAPDNQLVKVPEGTVQLGKKKDDPFYGWDNEYGTHIADVAAFEAGKYLVSNQEFLEFVQADGYETESYWEEEGRAWLKHAGAKHPTFWIRRGGEWELRLMTKEISMPWDWPVEVNYHEAKAFCNWKAAVSGQPYRLPTEDEWYRLYEVAGLSEVPAAAPAMANIHLDHGASSHPVNEFAQGDFYDVVGNVWQWTETPIYPFDGFDVHPHYDDFTTPTFDGRHNLIKGGSWISCGNESLKNSRYAFRRHFFQHAGFRYVVGTAPAIQHGSHYETDKLLSEYAEFHYGDTYFDVPNFPKALAELAIAAMGDKPAHKALDLGCASGRAAFELARHFDEVTGVDFSARFIGQGVQLASQGVLRYTLADEGDLVLYRERTLAGLGLDGVRHKVAFYQGDACNLKPIYTGYDLILAANLIDRLYDPAKLLTSIHTRINSGGILLIASPYTWLEEHTKREAWIGGFKRDGESFGTLDGLKEILGAHFRLIQGPTEVPFVIRETRRKFQHTLSEVTIWEKTA | failed
5 | MSENKKKFDKKGAKNMDEISKTLFAPIYPIIAENIINRFGITAGTCIDIGSGPGALSIALAKQSDFSIRALDFSKHMNEIALKNIADANLNDRIQIVQGDVHNIPIEDNYADLIVSRGSVFFWEDVATAFREIYRILKSGGKTYIGGGFGNKELRDSISAEMIRKNPDWKEFNRKNISQENVERFQNVLDEIGISSYEIILGDEGFWIIISKTDQEVI | not failed
6 | ISEWARKEQAIRNSEANFRDIFASIKDGLLVLDEDNYICYANAQAVKLLNCTLEELVGTIGSPLEDTEFSLLVDDGTIYTVDVSVTEITWYGQTAKLVSLRDISDRKRMENQLRENQNKYYRLLENLD | failed
7 | LTLDLAPVTPKDAPLLHRVFHLSPSYFALIGMELPTLEDVVRDLQTLEVDPRRRAFLLFLGQEPVGYLDAKLGYPEAEDATLSLLLIREDHQGRGLGRQALERFAAGLDGVRRLYAVVYGHNPKAKAFFQAQGFRYVK | not failed
8 | MDGGDDGNLIIKKRFVSEAELDERRKRRQEEWEKVRKPEDPEECPEEVYDPRSLYERLQEQKDRKQQEYEEQFKFKNMVRGLDEDETNFLDEVSRQQELIEKQRREEELKELKEYRNNLKKVGISQENKKEVEKKLTVKPIETKNKFSQAKLLAGAVKHKSSESGNSVKRLKPDPEPDDKNQEPSSCKSLGNTSLSGPSIHCPSAAVCIGILPGLGAYSGSSDSESSSDSEGTINATGKIVSSIFRTNTFLEAP | not failed
9 | MPNNHDVNPYGIAFVPAGLPAGSALQAGDVVVSNFNAASNKQGTGTTIVKLVTDGKPVTFFQGQNLGLTTALAVLKSGYVLVGNLPTTNGATITSTGSLLVITPQGKLLSELKDPTLLDGPWDMTVIIDNGQQVTAFVSNVLNGTVARIDLNIGPNGATLLQSSHLIASGYAHRPDPAALVVGPTGLAYDAAHDMLYVASTNDNKVFAIAGAAALAHDNGPGSVIYQDSNHLRGPLALALAPNGDLVTANGDAINPDPNQSSEIVEFTPDGRFVAQMQVDPAPGSAFGLAFGLSSSGQPQFAAVNDSTNTAIVWTLRPVGGN | failed
10 | MVKTAVLMATYNGEIFISEQLDSIRQQTLKPDYVLLRDDCSTDETVNVVNNYIAKHELEGWKIVKNDKNLGWRLNFRQLLIDVLAYEVDYVFFSDQDDIWYLDKNERQFAIMSDKPQIEVLSADVDIKTMSTEASVPHFLTFSSSDRISQYPKVYDYQTFRPGWTIAMKRDFAQAIADNWTFGANISHDNLIETTASIIGNGYNLNESVGVHIRYGGNASGNSKFVLNWKSPKTQHITGLKTFVDFYETMQKVVNKYQNDVALNQRLAFEKERLEASKLSLIHNSAFVIKNWRLYNSNSGRMRDLLFAFKKLEHHHHHH | not failed
11 | MEAWIFEIMRAVGRFFLHPAVYVFLISSIFVGYLRMLRERKDFSFKVYDIWFELRTSLLAGVKYGLIVSIITIGLGLVVSKASLWAILLWTLLFGLTAMYRYLSAAYTFSVAIVCVLLSSKLPVSFLQLGEGEENTIVSLAILLGIMLVVEGLLISKNAVGYSTPKIRKGKRGLKIGLHESKRLWIVPIFILVPGEAVTQFISWWPVVSIGSHTYSLFLVPFLIGFMRRIRSYEPTEALLFTGRRVYGLAGLVLVLGIASYWWHVLAIIAMGVAMLGRFTISMQEKIADETRPAYFAARNDGLVVLDTIPNTIGAELNLLPGEMITKVNGVIPRSAEEFYDALQTKTTGAFCKLEVLDTNGELRLAQTALYAGGHHELGIVFVQQEHEWDSEAM | failed
12 | MKYLASFRTTLKASRYMFRALALVLWLLIAFSSVFYIVNALHQRESEIRQEFNLSSDQAQRFIQRTSDVMKELKYIAENRLSAENGVLSPRGRETQADVPAFEPLFADSDCSAMSNTWRGSLESLAWFMRYWRDNFSAAYDLNRVFLIGSDNLCMANFGLRDMPVERDTALKALHERINKYRNAPQDDSGSNLYWISEGPRPCVGYFYALTPVYLANRLQALLGVEQTIRMENFFLPGTLPMGVTILDENGHTLISLTGPESKIKGDPRWMQERSWFGYTEGFRELVLKKNLPPSSLSIVYSVPVDKVLERIRMLILNAILLNVLAGAALFTLARMYERRIFIPAESDALRLEEHEQFNRKIVASAPVGICILRTADGVNILSNELAHTYLNMLTHEDRQRLTQIICGQQVNFVDVLTSNNTNLQISFVHSRYRNENVAICVLVDVSSRVKMEESLQEMAQAAEQASQSKSMFLATVSHELRTPLYGIIGNLDLLQTKELPKGVDRLVTAMNNSSSLLLKIISDILDFSKIESEQLKIEPREFSPREVMNHITANYLPLVVRKQLGLYCFIEPDVPVALNGDPMRLQQVISNLLSNAIKFTDTGCIVLHVRADGDYLSIRVRDTGVGIPAKEVVRLFDPFFQVGTGVQRNFQGTGLGLAICEKLISMMDGDISVDSEPGMGSQFTVRIPLYGAQYPQKKGVEGLSGKRCWLAVRNASLCQFLETSLQRSGIVVTTYEGQEPTPEDVLITDEVVSKKWQGRAVVTFCRRHIGIPLEKAPGEWVHSVAAPHELPALLARIYLIEMESDDPANALPSTDKAVSDNDDMMILVVDDHPINRRLLADQLGSLGYQCKTANDGVDALNVLSKNHIDIVLSDVNMPNMDGYRLTQRIRQLGLTLPVIGVTANALAEEKQRCLESGMDSCLSKPVTLDVIKQTLTVYAERVRKSRDS | failed
13 | MDKLVKYQELVKKLLTNYASDDVSDQDVEVQLILDTERNHYQWMNVGWQGLNRIYRCVIHFDIKDGKIWLQQNLTDRNPAEELVMMGVPREDIVLGLQAPYKRQYTDYGVA | not failed
14 | YCKTIPMPDLAYSEISVIGKLIRALPEPCALHLANSSTVRYAQLFTVPPQVEICCNRGVNGIEGSLSTAIGYAAASSKLNFIIIGDLSFFYDMNALWNQNYGANIRILLLNNEGGEIFHTLPGMDKSSRSREFITAEHYTTAKGWAEERGFIYMKVTGEEELEEAMQPFTSPETRMQPMLLEVFTDKEKD | failed
15 | MSDEWIKIFESDFYVREMIKVWDEGEKWANWIDEVVSKYKLEKKVLDIPCGIGRVSYFLANRGYKVTGIDISERMISMARSNIQNGKFIVGDMRKIKEIIGNEKYDLVINIYNSLGYYSEEDDLKILESLRDSTRKIVVINLDNRDYIIYNRPNEYYTYIPPYLVYSKVEFEQETSRLKIYRKYYLNDKEVGEMIYEQRLYSIHEILALLKKAGLQPIEVLSGYSWKKFSIMDPEMTIIATPA | failed
16 | MEFHLPSVPMRKILSYLDAFSLLQIAQVNKRWNTFASTDVLWRKFCLKRWFFYEVVTLELLGTESWKQFFVCRTRQERAKSRAKPEDFTYKEIPVEIGAPRNAYYISGCGLTRDGQGKSVICVVTSMNTISTWDLHKGAVTWVSPVQPSYIKILATLPEMHIAVTVDIESTIKLWDCHNREALATNNMLSSCQSLKAVFTKDGPVVLAGDTSGNLLIFRIPDLHLISRVHVFQYGINELYCSPQKKWVFLSKKHSQILPKVFFMSSLLRTSEFSAPASTILSFPLCQRAFWTPRREDRITLMSIKGSKKITTFVTFDIKLEKEEIGNKIRVKEYAIANFSLKKFEDTLEWMGVSDKNVIVCSTGSSLLIYSITGLHLQTFPYGPGEILRLSVDPLHVIVTFIDGSLELFAWEERSPLLRRCYRLYNKRHMLHRRFVNKTLCDDVSIVRVMTNVPSSSFLMVYTLNNGS | failed
17 | MMERFDISAQDLKSFGFTTLFCIVIALATMSIWGGLFGEHLAISFSYGYSAFFSAQWIARRWPELSKRLVNILSLSCAVVLGTSSAYLWLRHYPGFDEFSAYKPIIFLGFIFSAVCFLYFYSHEQKILAQGALEAARRRQSEQEKALLLSQLKQLQSQMEPHFLFNTLANINALIAVEPYKAQLMLEKLTELLRGTMRLRRTNTGDLREEMQLIDAYLGIQKIRLGERLEYTLPELSELGTLGMPPMLIQPLVENAVSHGIEPKAEGGTIRVRIEVADDWFELSVEDNGMGLSDTPKGNGIALQNVRDRLSGLFGHEGLLTVAQNCSGGVTATLRIRLHHLQGLQRSFYDYSQARSPQS | failed
18 | NQLIRGRLVVGMVTACTVKPLFDALSAFHVAHPGIEITLTEDSSDRLVERVRAGAIDLALVGTATAPPDGLDAFPIISEGLVAAVPPGHPLAGRSRVTLAELGDHAIVCMPTGTGIRTVFDQACAAAGLRPDIALQASAPDAVADLAIRG | failed
19 | MQQIWGSERRRTAIGRMALSVPARQALADRQLVAERTILDYGCGRGDDVRALQQLDCQVVGWDPYYRTDTQLVATDVVLLTYVLNVIEDPAERRQTLKQAWELTSTLLVVSARLTWEKSKVHGEGFGDGLLTSRQTFQHLYATSELREYVEQVTGAR | failed
20 | MGHHHHHHSHLSPDRRASLLTSLMLVKRDYRYDRVLFWGRILGLVADYYIAQGLSEDQLAPRKTLYSLNCTEWSLLPPATEEMVAQSSVVKGRFMGDPSYEYEHTELQKVNEGEKVFEEEIVVQIKEETRLVSVIDQIDKAVAIIPRGALFKTPFGPTHVNRTFEGLSLSEAKKLSSYFHFREPVELKNKTLLEKADLDPSLDFMDSLEHDIPKGSWSIQMERGNALVVLRSLLWPGLTFYHAPRTKNYGYVYVGTGEKNMDLPFML | failed
